Assay results published in patent publication US20120027773A1.

Legend:
[1] = target: human wild-type RON (cell surface) (human) (UniProt Q04912); assay: FACS, 10 ug/ml, PC3 cells, 4 C; negative control
[2] = target: delta 160 RON variant (cell surface) (human) (UniProt Q04912); assay: FACS, 10 ug/ml, HT-29 cells, 4 C; negative control

Which PC3 % cell surface binding [1] does the source give for murine IgG control (antibody) here?
The PC3 % cell surface binding was 5.5%.

What about the HT-29 % cell surface binding [2] of the same substance?
The HT-29 % cell surface binding was 5.62%.
